This note sets out measurements from PMC4916044.

For this test, the target named is endogenous NFκB2 p100 (mouse (endogenous in NFκB2+/+ MEFs)) (UniProt Q9WTK5). Briefly: immunodepletion.
UniProt Q9WTK5, sequence (Q9WTK5 whole entry): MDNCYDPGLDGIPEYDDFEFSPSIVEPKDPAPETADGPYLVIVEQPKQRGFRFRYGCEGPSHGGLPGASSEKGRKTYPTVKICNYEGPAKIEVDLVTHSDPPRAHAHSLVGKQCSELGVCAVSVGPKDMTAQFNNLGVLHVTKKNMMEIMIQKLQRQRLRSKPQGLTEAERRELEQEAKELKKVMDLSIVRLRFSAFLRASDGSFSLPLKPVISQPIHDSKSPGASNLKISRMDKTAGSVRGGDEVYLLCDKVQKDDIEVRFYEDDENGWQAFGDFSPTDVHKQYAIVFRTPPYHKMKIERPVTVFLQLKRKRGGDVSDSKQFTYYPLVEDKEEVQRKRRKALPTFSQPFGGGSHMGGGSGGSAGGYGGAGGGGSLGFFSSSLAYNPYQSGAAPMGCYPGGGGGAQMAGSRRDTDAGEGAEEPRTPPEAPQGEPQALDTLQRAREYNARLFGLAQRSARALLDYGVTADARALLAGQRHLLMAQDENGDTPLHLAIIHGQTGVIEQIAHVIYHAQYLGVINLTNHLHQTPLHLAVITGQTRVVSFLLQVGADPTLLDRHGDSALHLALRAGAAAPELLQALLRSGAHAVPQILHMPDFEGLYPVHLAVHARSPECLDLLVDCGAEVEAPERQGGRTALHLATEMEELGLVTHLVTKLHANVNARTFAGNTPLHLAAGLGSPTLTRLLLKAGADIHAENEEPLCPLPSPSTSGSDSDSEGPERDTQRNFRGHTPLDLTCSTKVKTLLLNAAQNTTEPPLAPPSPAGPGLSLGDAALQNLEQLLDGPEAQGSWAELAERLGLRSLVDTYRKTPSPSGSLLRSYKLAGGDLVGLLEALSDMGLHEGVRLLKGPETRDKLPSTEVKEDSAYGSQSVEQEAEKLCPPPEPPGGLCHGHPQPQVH

Take “endogenous ERK2 (from UniProt P63085 1-358) (natural protein)”: the percent of endogenous ERK2 pulled down with p100 (immunodepletion) was determined as 46%.
